Measurements: PMC6180346, “Two Faces of CwlM, an Essential PknB Substrate, in Mycobacterium tuberculosis” (Cell Reports, 2018)
Like-named read-outs stand apart in the source and are kept apart here.

Target: FhaA C-terminal FHA domain (UniProt P71590)

CwlM 378-392 (from UniProt L7N653)
binding against the reference (sites T382): gained | binding against the reference (sites T386): gained
